Experimental data published in publication PMC5818171, “The role of conserved residues in Fdc decarboxylase in prenylated flavin mononucleotide oxidative maturation, cofactor isomerization, and catalysis” (The Journal of Biological Chemistry, 2017).
Positions count from the first letter of the chain named. In names and notes the source's numbering stands.

Columns and labels:
[1] = tested on: O=C(O)/C=C/c1ccccc1; experiment: purified protein; conditions: 50 mM KCl, 50 mM NaPi, pH 6, 25 °C, prFMN holo-enzyme
[2] = target: A. niger Fdc1 (Aspergillus niger, UniProt A2QHE5); conditions: purified and crystallized in the dark
[3] = substrate: O=C(O)/C=C/c1ccccc1; experiment: purified protein; conditions: 50 mM KCl, 50 mM NaPi, pH 6, 25 °C, prFMN holo-enzyme; remark: listed apart in the source

A. niger Fdc1 (Aspergillus niger CBS 513.88; E282D)
Km [1]: 50 ± 10 µM | kcat [1]: 0.63 ± 0.04 s⁻¹

A. niger Fdc1 (Aspergillus niger CBS 513.88)
Km [1]: 10.0 ± 0.6 µM | kcat [1]: 9.4 ± 0.1 s⁻¹

Cc1cc2c3c(c1C)C(C)(C)CC=[N+]3c1c(nc([O-])[nH]c1=O)N2C[C@H](O)[C@H](O)[C@H](O)COP(=O)(O)O [prFMN^iminium]
crystal structure [2]: the prFMN cofactor is exclusively in the iminium form

B1: S. cerevisiae Fdc1 (Saccharomyces cerevisiae S288C) (protein)
chain: MRKLNPALEFRDFIQVLKDEDDLIEITEEIDPNLEVGAIMRKAYESHLPAPLFKNLKGASKDLFSILGCPAGLRSKEKGDHGRIAHHLGLDPKTTIKEIIDYLLECKEKEPLPPITVPVSSAPCKTHILSEEKIHLQSLPTPYLHVSDGGKYLQTYGMWILQTPDKKWTNWSIARGMVVDDKHITGLVIKPQHIRQIADSWAAIGKANEIPFALCFGVPPAAILVSSMPIPEGVSESDYVGAILGESVPVVKCETNDLMVPATSEMVFEGTLSLTDTHLEGPFGEMHGYVFKSQGHPCPLYTVKAMSYRDNAILPVSNPGLCTDETHTLIGSLVATEAKELAIESGLPILDAFMPYEAQALWLILKVDLKGLQALKTTPEEFCKKVGDIYFRTKVGFIVHEIILVADDIDIFNFKEVIWAYVTRHTPVADQMAFDDVTSFPLAPFVSQSSRSKTMKGGKCVTNCIFRQQYERSFDYITCNFEKGYPKGLVDKVNENWKRYGYK
Km [3]: 25.5 ± 3.6 µM | kcat [3]: 10.5 ± 0.4 s⁻¹

B2: S. cerevisiae Fdc1 (Saccharomyces cerevisiae S288C; E280D) (protein)
chain: B1 chain with E280D
Km [3]: 8.6 ± 1.5 µM | kcat [3]: 0.92 ± 0.03 s⁻¹

B3: S. cerevisiae Fdc1 (Saccharomyces cerevisiae S288C; E285D) (protein)
chain: B1 chain with E285D
Km [3]: 20.4 ± 3.6 µM | kcat [3]: 0.28 ± 0.01 s⁻¹
